Source: the supplement of paper PMC9112550, “Optimization of the antimicrobial peptide Bac7 by deep mutational scanning” (BMC Biology, 2022)

Tested on: Escherichia coli TOP10
Assay: shrunken log2 fold change of peptide-encoding DNA abundance (4.5 h post-induction vs induction); higher = less antimicrobial activity (less host growth inhibition)
Conditions: time post-induction: 4.5 h; library: site-saturation at positions 5, 18, 19, 20
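Note: peptides expressed intracellularly from a pBAD plasmid library in pooled LB shake-flask culture, induced with 0.3% L-arabinose, DNA abundance read by NGS, three biological replicates, DESeq2 with apeglm shrinkage.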

RRIRTRPPRLPRPRPRPRWKPRP
shrunken log2 fold change: 0.0709

RRIRTRPPRLPRPRPRPRWNPRP
shrunken log2 fold change: 0.969

RRIRTRPPRLPRPRPRPRYNPRP
shrunken log2 fold change: -0.712

RRIRTRPPRLPRPRPRPRYPPRP
shrunken log2 fold change: -0.516

RRIRTRPPRLPRPRPRPSASPRP
shrunken log2 fold change: -0.0732

RRIRTRPPRLPRPRPRPSCPPRP
shrunken log2 fold change: -0.444

RRIRTRPPRLPRPRPRPSDTPRP
shrunken log2 fold change: -0.212

RRIRTRPPRLPRPRPRPSEAPRP
shrunken log2 fold change: 0.0182

RRIRTRPPRLPRPRPRPSEMPRP
shrunken log2 fold change: -0.00622

RRIRTRPPRLPRPRPRPSFHPRP
shrunken log2 fold change: -0.772

RRIRTRPPRLPRPRPRPSFKPRP
shrunken log2 fold change: -0.465

RRIRTRPPRLPRPRPRPSGGPRP
shrunken log2 fold change: 0.863

RRIRTRPPRLPRPRPRPSGWPRP
shrunken log2 fold change: -0.00504

RRIRTRPPRLPRPRPRPSHFPRP
shrunken log2 fold change: -0.315

RRIRTRPPRLPRPRPRPSHPPRP
shrunken log2 fold change: -0.416

RRIRTRPPRLPRPRPRPSKAPRP
shrunken log2 fold change: -0.0453

RRIRTRPPRLPRPRPRPSLDPRP
shrunken log2 fold change: -0.286

RRIRTRPPRLPRPRPRPSLHPRP
shrunken log2 fold change: -0.604

RRIRTRPPRLPRPRPRPSMEPRP
shrunken log2 fold change: -0.136

RRIRTRPPRLPRPRPRPSMNPRP
shrunken log2 fold change: -0.28

RRIRTRPPRLPRPRPRPSMSPRP
shrunken log2 fold change: -0.655

RRIRTRPPRLPRPRPRPSNNPRP
shrunken log2 fold change: -0.639

RRIRTRPPRLPRPRPRPSQGPRP
shrunken log2 fold change: 0.144

RRIRTRPPRLPRPRPRPSQPPRP
shrunken log2 fold change: -0.16

RRIRTRPPRLPRPRPRPSQQPRP
shrunken log2 fold change: 0.117

RRIRTRPPRLPRPRPRPSRLPRP
shrunken log2 fold change: 0.0405

RRIRTRPPRLPRPRPRPSSAPRP
shrunken log2 fold change: -0.172

RRIRTRPPRLPRPRPRPSTHPRP
shrunken log2 fold change: -0.575

RRIRTRPPRLPRPRPRPSTSPRP
shrunken log2 fold change: -0.239

RRIRTRPPRLPRPRPRPSVWPRP
shrunken log2 fold change: 0.172

RRIRTRPPRLPRPRPRPSWGPRP
shrunken log2 fold change: -0.179

RRIRTRPPRLPRPRPRPSWIPRP
shrunken log2 fold change: -0.525

RRIRTRPPRLPRPRPRPSWSPRP
shrunken log2 fold change: -0.196

RRIRTRPPRLPRPRPRPSYLPRP
shrunken log2 fold change: -0.416

RRIRTRPPRLPRPRPRPSYVPRP
shrunken log2 fold change: -0.305

RRIRTRPPRLPRPRPRPTADPRP
shrunken log2 fold change: 0.351

RRIRTRPPRLPRPRPRPTCSPRP
shrunken log2 fold change: 0.00373

RRIRTRPPRLPRPRPRPTCTPRP
shrunken log2 fold change: -0.094

RRIRTRPPRLPRPRPRPTCYPRP
shrunken log2 fold change: -0.0585

RRIRTRPPRLPRPRPRPTDRPRP
shrunken log2 fold change: -0.212

RRIRTRPPRLPRPRPRPTFDPRP
shrunken log2 fold change: -0.0153

RRIRTRPPRLPRPRPRPTFFPRP
shrunken log2 fold change: -0.11

RRIRTRPPRLPRPRPRPTGVPRP
shrunken log2 fold change: 0.077

RRIRTRPPRLPRPRPRPTHLPRP
shrunken log2 fold change: -0.0332

RRIRTRPPRLPRPRPRPTIIPRP
shrunken log2 fold change: -0.786

RRIRTRPPRLPRPRPRPTLIPRP
shrunken log2 fold change: -0.108

RRIRTRPPRLPRPRPRPTMLPRP
shrunken log2 fold change: 3.82

RRIRTRPPRLPRPRPRPTNQPRP
shrunken log2 fold change: -0.067

RRIRTRPPRLPRPRPRPTSHPRP
shrunken log2 fold change: -0.478

RRIRTRPPRLPRPRPRPTTPPRP
shrunken log2 fold change: 0.245

RRIRTRPPRLPRPRPRPTVRPRP
shrunken log2 fold change: 2.09

RRIRTRPPRLPRPRPRPTWQPRP
shrunken log2 fold change: 0.149

RRIRTRPPRLPRPRPRPTYHPRP
shrunken log2 fold change: -0.291

RRIRTRPPRLPRPRPRPVAFPRP
shrunken log2 fold change: -0.225

RRIRTRPPRLPRPRPRPVCQPRP
shrunken log2 fold change: 2.97

RRIRTRPPRLPRPRPRPVDHPRP
shrunken log2 fold change: -0.216

RRIRTRPPRLPRPRPRPVDKPRP
shrunken log2 fold change: -0.362

RRIRTRPPRLPRPRPRPVDNPRP
shrunken log2 fold change: -0.0554

RRIRTRPPRLPRPRPRPVDRPRP
shrunken log2 fold change: 0.141

RRIRTRPPRLPRPRPRPVHLPRP
shrunken log2 fold change: -0.123

RRIRTRPPRLPRPRPRPVIIPRP
shrunken log2 fold change: -0.213

RRIRTRPPRLPRPRPRPVKDPRP
shrunken log2 fold change: -0.0913

RRIRTRPPRLPRPRPRPVKEPRP
shrunken log2 fold change: -0.0988

RRIRTRPPRLPRPRPRPVLMPRP
shrunken log2 fold change: 0.187

RRIRTRPPRLPRPRPRPVLNPRP
shrunken log2 fold change: -0.269

RRIRTRPPRLPRPRPRPVLSPRP
shrunken log2 fold change: -0.328

RRIRTRPPRLPRPRPRPVPAPRP
shrunken log2 fold change: 0.35

RRIRTRPPRLPRPRPRPVPHPRP
shrunken log2 fold change: -0.0291

RRIRTRPPRLPRPRPRPVSRPRP
shrunken log2 fold change: 0.464

RRIRTRPPRLPRPRPRPVVCPRP
shrunken log2 fold change: 0.0187

RRIRTRPPRLPRPRPRPVVTPRP
shrunken log2 fold change: 0.0483

RRIRTRPPRLPRPRPRPVWFPRP
shrunken log2 fold change: 0.0412

RRIRTRPPRLPRPRPRPWAGPRP
shrunken log2 fold change: -0.0234

RRIRTRPPRLPRPRPRPWARPRP
shrunken log2 fold change: -0.00874

RRIRTRPPRLPRPRPRPWCHPRP
shrunken log2 fold change: -0.732

RRIRTRPPRLPRPRPRPWDAPRP
shrunken log2 fold change: 0.125

RRIRTRPPRLPRPRPRPWDCPRP
shrunken log2 fold change: -0.000687

RRIRTRPPRLPRPRPRPWHGPRP
shrunken log2 fold change: -0.111

RRIRTRPPRLPRPRPRPWIAPRP
shrunken log2 fold change: -0.0119

RRIRTRPPRLPRPRPRPWIWPRP
shrunken log2 fold change: -0.0307

RRIRTRPPRLPRPRPRPWKDPRP
shrunken log2 fold change: 0.0143

RRIRTRPPRLPRPRPRPWKKPRP
shrunken log2 fold change: 0.0414

RRIRTRPPRLPRPRPRPWLMPRP
shrunken log2 fold change: -0.11

RRIRTRPPRLPRPRPRPWNGPRP
shrunken log2 fold change: -0.199

RRIRTRPPRLPRPRPRPWNRPRP
shrunken log2 fold change: -0.0406

RRIRTRPPRLPRPRPRPWPSPRP
shrunken log2 fold change: -0.00931

RRIRTRPPRLPRPRPRPWRPPRP
shrunken log2 fold change: 0.00182

RRIRTRPPRLPRPRPRPWSAPRP
shrunken log2 fold change: -0.152

RRIRTRPPRLPRPRPRPWVTPRP
shrunken log2 fold change: -0.117

RRIRTRPPRLPRPRPRPWWAPRP
shrunken log2 fold change: -0.134

RRIRTRPPRLPRPRPRPWWSPRP
shrunken log2 fold change: -0.143

RRIRTRPPRLPRPRPRPWYTPRP
shrunken log2 fold change: -0.555

RRIRTRPPRLPRPRPRPYAIPRP
shrunken log2 fold change: -0.000694

RRIRTRPPRLPRPRPRPYAPPRP
shrunken log2 fold change: -1.07

RRIRTRPPRLPRPRPRPYARPRP
shrunken log2 fold change: -0.000715

RRIRTRPPRLPRPRPRPYCMPRP
shrunken log2 fold change: -1.28

RRIRTRPPRLPRPRPRPYCQPRP
shrunken log2 fold change: -0.804

RRIRTRPPRLPRPRPRPYCRPRP
shrunken log2 fold change: -0.149

RRIRTRPPRLPRPRPRPYDPPRP
shrunken log2 fold change: -0.0474

RRIRTRPPRLPRPRPRPYEDPRP
shrunken log2 fold change: -0.0155

RRIRTRPPRLPRPRPRPYEQPRP
shrunken log2 fold change: -0.0291

RRIRTRPPRLPRPRPRPYFCPRP
shrunken log2 fold change: -0.0855

RRIRTRPPRLPRPRPRPYFDPRP
shrunken log2 fold change: -0.738

RRIRTRPPRLPRPRPRPYHWPRP
shrunken log2 fold change: -0.675

RRIRTRPPRLPRPRPRPYHYPRP
shrunken log2 fold change: -0.185

RRIRTRPPRLPRPRPRPYKDPRP
shrunken log2 fold change: -0.308

RRIRTRPPRLPRPRPRPYMFPRP
shrunken log2 fold change: -0.776

RRIRTRPPRLPRPRPRPYMQPRP
shrunken log2 fold change: -0.298

RRIRTRPPRLPRPRPRPYNLPRP
shrunken log2 fold change: -0.336

RRIRTRPPRLPRPRPRPYNMPRP
shrunken log2 fold change: -0.568

RRIRTRPPRLPRPRPRPYNWPRP
shrunken log2 fold change: -0.143

RRIRTRPPRLPRPRPRPYRPPRP
shrunken log2 fold change: -0.2

RRIRTRPPRLPRPRPRPYRSPRP
shrunken log2 fold change: 0.0429

RRIRTRPPRLPRPRPRPYSHPRP
shrunken log2 fold change: -0.04

RRIRTRPPRLPRPRPRPYSSPRP
shrunken log2 fold change: 0.00157

RRIRTRPPRLPRPRPRPYTGPRP
shrunken log2 fold change: -0.0567

RRIRTRPPRLPRPRPRPYVDPRP
shrunken log2 fold change: 0.0214

RRIRTRPPRLPRPRPRPYWEPRP
shrunken log2 fold change: -0.0372

RRIRTRPPRLPRPRPRPYYHPRP
shrunken log2 fold change: -0.581

RRIRTRPPRLPRPRPRPYYLPRP
shrunken log2 fold change: -1.28

RRIRVRPPRLPRPRPRPACGPRP
shrunken log2 fold change: 0.122

RRIRVRPPRLPRPRPRPADEPRP
shrunken log2 fold change: -0.0284

RRIRVRPPRLPRPRPRPADMPRP
shrunken log2 fold change: -0.173

RRIRVRPPRLPRPRPRPAEPPRP
shrunken log2 fold change: 0.218

RRIRVRPPRLPRPRPRPAEQPRP
shrunken log2 fold change: 0.247

RRIRVRPPRLPRPRPRPAFRPRP
shrunken log2 fold change: 0.186

RRIRVRPPRLPRPRPRPAGHPRP
shrunken log2 fold change: -0.1

RRIRVRPPRLPRPRPRPAGVPRP
shrunken log2 fold change: 0.283

RRIRVRPPRLPRPRPRPAICPRP
shrunken log2 fold change: -0.0408

RRIRVRPPRLPRPRPRPAKCPRP
shrunken log2 fold change: 0.0602

RRIRVRPPRLPRPRPRPAKDPRP
shrunken log2 fold change: 0.00226

RRIRVRPPRLPRPRPRPAKFPRP
shrunken log2 fold change: 0.42

RRIRVRPPRLPRPRPRPAKKPRP
shrunken log2 fold change: 0.0179

RRIRVRPPRLPRPRPRPALVPRP
shrunken log2 fold change: 0.464

RRIRVRPPRLPRPRPRPAMCPRP
shrunken log2 fold change: -0.178

RRIRVRPPRLPRPRPRPAMIPRP
shrunken log2 fold change: -0.07

RRIRVRPPRLPRPRPRPAPCPRP
shrunken log2 fold change: 0.168

RRIRVRPPRLPRPRPRPAQRPRP
shrunken log2 fold change: 0.184

RRIRVRPPRLPRPRPRPAQYPRP
shrunken log2 fold change: -0.0437

RRIRVRPPRLPRPRPRPARMPRP
shrunken log2 fold change: 0.425

RRIRVRPPRLPRPRPRPARQPRP
shrunken log2 fold change: 0.365

RRIRVRPPRLPRPRPRPASIPRP
shrunken log2 fold change: -0.437

RRIRVRPPRLPRPRPRPATYPRP
shrunken log2 fold change: -0.0417

RRIRVRPPRLPRPRPRPAWIPRP
shrunken log2 fold change: 0.0483

RRIRVRPPRLPRPRPRPAWRPRP
shrunken log2 fold change: 0.712

RRIRVRPPRLPRPRPRPCARPRP
shrunken log2 fold change: -0.0405

RRIRVRPPRLPRPRPRPCCEPRP
shrunken log2 fold change: -0.0815

RRIRVRPPRLPRPRPRPCCFPRP
shrunken log2 fold change: -0.00712

RRIRVRPPRLPRPRPRPCCGPRP
shrunken log2 fold change: -0.248

RRIRVRPPRLPRPRPRPCCSPRP
shrunken log2 fold change: -0.192
